This note sets out measurements from PMC2685181 (The Journal of neuroscience : the official journal of the …, 2008).

The assay deals with WT β1b_core (core region of Ca2+ channel β1b subunit, G58-T418) (human, UniProt Q02641-1 58-418). Nature of the assay: pull-down.

Where no end group is shown, it is not given here.

WT β1b_core (core region of Ca2+ channel β1b subunit, G58-T418), sequence (Q02641 58-418): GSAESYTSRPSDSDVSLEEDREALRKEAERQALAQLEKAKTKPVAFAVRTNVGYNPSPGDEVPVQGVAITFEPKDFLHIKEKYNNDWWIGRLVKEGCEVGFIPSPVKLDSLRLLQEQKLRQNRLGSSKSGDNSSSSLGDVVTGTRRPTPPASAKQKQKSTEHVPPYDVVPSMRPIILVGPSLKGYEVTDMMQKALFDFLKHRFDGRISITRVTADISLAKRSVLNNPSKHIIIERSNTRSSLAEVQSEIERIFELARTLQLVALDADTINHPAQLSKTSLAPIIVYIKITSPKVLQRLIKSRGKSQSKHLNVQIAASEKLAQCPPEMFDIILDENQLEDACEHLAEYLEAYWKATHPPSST

B1: GST_I-II loop with five alanines inserted between F376 and L377 (domain or fragment, rabbit, UniProt P27884 369-413, looked up)
chain: RVENRRAFAAAAALKLRRQQQIERELNGYMEWISKAEEVILAEDETDVEQ
Regarding B1, the binding result is recorded as “binds”.

B2: GST_I-II loop with seven glycines inserted between F376 and L377 (domain or fragment, rabbit, UniProt P27884 369-413, looked up)
chain: RVENRRAFGGGGGGGLKLRRQQQIERELNGYMEWISKAEEVILAEDETDVEQ
modifications: not fully specified
As for B2, the binding result is “binds”.

B3: GST_I-II loop with seven alanines inserted between F376 and L377 (domain or fragment, rabbit, UniProt P27884 369-413, looked up)
chain: RVENRRAFAAAAAAALKLRRQQQIERELNGYMEWISKAEEVILAEDETDVEQ
For B3, the binding result is recorded as “binds”.

B4: GST_I-II loop with five glycines inserted between F376 and L377 (domain or fragment, rabbit, UniProt P27884 369-413, looked up)
chain: RVENRRAFGGGGGLKLRRQQQIERELNGYMEWISKAEEVILAEDETDVEQ
modifications: not fully specified
As to B4, the binding result was “binds”.
